Assay results as given in patent USRE42211, “Relating to binding proteins for recognition of DNA” (Gendaq, Limited).

Biological target: anti-BCR-ABL three-finger peptide 1A-2A-3B (synthetic)
Assay: phage ELISA after capture on streptavidin beads; +/-0.4e-7 M; Zn, PBS, 20 C
Settings: source form inferred; label: 5'-biotin

Chain of anti-BCR-ABL three-finger peptide 1A-2A-3B (synthetic) (chain, as listed by the source): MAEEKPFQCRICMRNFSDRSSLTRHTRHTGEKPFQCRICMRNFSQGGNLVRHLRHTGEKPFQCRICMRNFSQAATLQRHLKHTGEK

B1: p190 BCR-ABL cDNA fusion site oligo (dsDNA)
DNA 1: GAGACGCAGAAGCCCTTC
DNA 2: GAAGGGCTTCTGCGTCTC
Work on B1 yielded a Kd of 620 nM.
